Measured values as given in paper PMC2723105, “DNA binding by Corynebacterium glutamicum TetR-type transcription regulator AmtR”.
Substitutions are numbered along the chain they refer to.

What was measured:
Experiment in all cases: EMSA
Conditions in all cases: EMSA: DIG gel shift kit (Roche) conditions, 0.04 ng DNA, native 6% PAGE in 0.5x TBE; SPR: HBS-EP running buffer, 25 °C, BIAcoreX, nonspecific 30-mer DNA in the …
[1] = tested on: AmtR-MBP T33A (Corynebacterium glutamicum ATCC13032)
[2] = tested on: AmtR-MBP E30A (Corynebacterium glutamicum ATCC13032)
[3] = molecular target: T1, AmtR-MBP S55A S55A (Corynebacterium glutamicum ATCC13032) (UniProt H7C699)
T1 sequence: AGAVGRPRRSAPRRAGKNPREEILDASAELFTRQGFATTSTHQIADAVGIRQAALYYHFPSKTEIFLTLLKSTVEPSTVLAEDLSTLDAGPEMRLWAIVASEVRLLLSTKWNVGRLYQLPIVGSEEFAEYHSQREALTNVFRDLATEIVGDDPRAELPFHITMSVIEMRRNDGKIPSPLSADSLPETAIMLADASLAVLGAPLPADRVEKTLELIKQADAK

[4] = tested on: AmtR-MBP L71A (Corynebacterium glutamicum ATCC13032)
[5] = molecular target: T2, AmtR-MBP T42A T42A (Corynebacterium glutamicum ATCC13032) (UniProt H7C699)
T2 sequence: T1 sequence with T41A, A54S

[6] = molecular target: T3, AmtR-MBP Y58A Y58A (Corynebacterium glutamicum ATCC13032) (UniProt H7C699)
T3 sequence: T1 sequence with A54S, Y57A

[7] = molecular target: T4, AmtR-MBP Y57A Y57A (Corynebacterium glutamicum ATCC13032) (UniProt H7C699)
T4 sequence: T1 sequence with A54S, Y56A

Row | Substance | Kd [1] [µM] | Kd [2] [µM] | Kd [3] [µM] | Kd [4] [µM] | binding [5] | binding [6] | binding [7]
1 | amtB promoter PCR fragment | 2.2 | 10 | 71 | 20 |  |  | 
2 | GCTGGGCTAGAAACCCGATAAGCGAGAACCACCTGTCGGATGTTGTCTGGCAGGTGGTTTTCTTTTGCCTGGGTACCACCAAAAAGCAGCTGTGATGCACTTAACAATTCATTAAATTACCTGTTAAACTATAGAAAATATCCAAAACCCTCCAAAACCTATTCTATAGATCTATTGAAATTAGTTTCTGTAGGTCTATAGTTAGAGCTGGTTCAAGGGGTGTCAATCCCAAAAGGCACTCCTTGAACTCATGAAAAAGCTTGACAAAACTTCAACGTCAAAGGAGGTCATCCACGC (double strand) [amtB promoter PCR fragment] |  |  | 71 |  | binds | binds more weakly | binds more weakly
